In patent US20250304643A1 (BAINAN BIOTECH, published 2025):
Where two headings read alike, the source gives them in different places. *1 amine or outer side, *2 acyl side, *3 side chain or, on linkers, in order; H or OH if unused. Where no end group is shown, it is not given here. Side-chain parts run from the residue outwards. [ ]: non-standard residue; d: D form. The star is where a group is joined. C18 diacid = O=C(O)CCCCCCCCCCCCCCCCC(=O)*; C16 diacid = O=C(O)CCCCCCCCCCCCCCC(=O)*; γGlu = O=C(O)[C@H](CCC(=O)[*:2])N[*:1]; Palmitoyl = CCCCCCCCCCCCCCCC(=O)*; Decanoyl = CCCCCCCCCC(=O)*; AEEA = NCCOCCOCC(=O)O; Aib = CC(C)(N)C(=O)O

T1: human GIPR (glucose-dependent insulinotropic polypeptide receptor) (human, UniProt P48546 22-466)
T1 sequence (looked up): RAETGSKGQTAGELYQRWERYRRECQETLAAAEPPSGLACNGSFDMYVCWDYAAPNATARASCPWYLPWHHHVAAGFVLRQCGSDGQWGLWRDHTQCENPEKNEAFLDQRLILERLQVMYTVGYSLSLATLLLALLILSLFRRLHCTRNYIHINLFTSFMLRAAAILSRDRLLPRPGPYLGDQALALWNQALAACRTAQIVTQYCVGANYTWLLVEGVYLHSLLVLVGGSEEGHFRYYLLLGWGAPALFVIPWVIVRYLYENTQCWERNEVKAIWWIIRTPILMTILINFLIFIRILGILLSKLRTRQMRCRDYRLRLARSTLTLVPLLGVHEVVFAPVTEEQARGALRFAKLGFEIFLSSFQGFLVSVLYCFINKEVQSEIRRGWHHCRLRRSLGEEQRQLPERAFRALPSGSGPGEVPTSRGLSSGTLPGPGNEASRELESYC

T2: human GLP-2R (glucagon-like peptide-2 receptor) (human, UniProt O95838 1-553)
T2 sequence (looked up): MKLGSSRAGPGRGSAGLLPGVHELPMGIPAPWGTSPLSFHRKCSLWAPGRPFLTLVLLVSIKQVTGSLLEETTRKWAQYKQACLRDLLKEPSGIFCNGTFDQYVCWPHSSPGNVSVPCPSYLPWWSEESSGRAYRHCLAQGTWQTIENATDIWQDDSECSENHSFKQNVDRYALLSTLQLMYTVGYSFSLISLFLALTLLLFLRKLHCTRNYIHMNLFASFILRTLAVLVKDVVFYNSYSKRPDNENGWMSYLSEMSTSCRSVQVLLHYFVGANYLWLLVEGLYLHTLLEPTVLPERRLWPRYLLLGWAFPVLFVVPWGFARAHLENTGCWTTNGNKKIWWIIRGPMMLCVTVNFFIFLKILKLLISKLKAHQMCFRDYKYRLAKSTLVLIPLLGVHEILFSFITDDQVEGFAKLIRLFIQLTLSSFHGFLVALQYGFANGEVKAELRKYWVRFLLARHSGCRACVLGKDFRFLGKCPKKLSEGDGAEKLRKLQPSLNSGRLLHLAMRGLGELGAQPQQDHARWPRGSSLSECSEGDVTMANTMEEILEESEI

T3: rat GIPR (rat, UniProt P43219 19-455)
T3 sequence (looked up): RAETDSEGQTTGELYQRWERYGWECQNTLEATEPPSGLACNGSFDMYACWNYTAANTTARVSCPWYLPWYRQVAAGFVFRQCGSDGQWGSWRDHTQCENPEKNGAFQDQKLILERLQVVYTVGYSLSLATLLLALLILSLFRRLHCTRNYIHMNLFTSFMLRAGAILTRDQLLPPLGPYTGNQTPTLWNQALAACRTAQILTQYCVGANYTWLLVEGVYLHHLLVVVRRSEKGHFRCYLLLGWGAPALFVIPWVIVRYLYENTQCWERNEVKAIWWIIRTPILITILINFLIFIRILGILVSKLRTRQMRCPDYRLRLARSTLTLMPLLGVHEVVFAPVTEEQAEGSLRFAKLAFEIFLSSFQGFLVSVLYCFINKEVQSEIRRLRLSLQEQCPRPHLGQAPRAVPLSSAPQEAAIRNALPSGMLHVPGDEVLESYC

B1: Compound no. 25 (peptide)
peptide: H[Aib]DGK([γGlu-C16 diacid])FISDYST[Aib]LDNLAARDFINWLIQTKITK-OH
modifications: N-terminus assumed
SMILES: CC[C@H](C)[C@H](NC(=O)[C@H](Cc1ccccc1)NC(=O)[C@H](CCCCNC(=O)CC[C@H](NC(=O)CCCCCCCCCCCCCCC(=O)O)C(=O)O)NC(=O)CNC(=O)[C@H](CC(=O)O)NC(=O)C(C)(C)NC(=O)[C@@H](N)Cc1c[nH]cn1)C(=O)N[C@@H](CO)C(=O)N[C@@H](CC(=O)O)C(=O)N[C@@H](Cc1ccc(O)cc1)C(=O)N[C@@H](CO)C(=O)N[C@H](C(=O)NC(C)(C)C(=O)N[C@@H](CC(C)C)C(=O)N[C@@H](CC(=O)O)C(=O)N[C@@H](CC(N)=O)C(=O)N[C@@H](CC(C)C)C(=O)N[C@@H](C)C(=O)N[C@@H](C)C(=O)N[C@@H](CCCNC(=N)N)C(=O)N[C@@H](CC(=O)O)C(=O)N[C@@H](Cc1ccccc1)C(=O)N[C@H](C(=O)N[C@@H](CC(N)=O)C(=O)N[C@@H](Cc1c[nH]c2ccccc12)C(=O)N[C@@H](CC(C)C)C(=O)N[C@H](C(=O)N[C@@H](CCC(N)=O)C(=O)N[C@H](C(=O)N[C@@H](CCCCN)C(=O)N[C@H](C(=O)N[C@H](C(=O)N[C@@H](CCCCN)C(=O)O)[C@@H](C)O)[C@@H](C)CC)[C@@H](C)O)[C@@H](C)CC)[C@@H](C)CC)[C@@H](C)O

Experiments:
Experiment in all cases: cell-based or functional assay
[1] = target: T1, human GIPR (glucose-dependent …)
[2] = target: T4, human GLP-1R (GLP-1 receptor) (human, UniProt P43220 24-463)
[3] = target: T2, human GLP-2R (glucagon-like peptide-2 …)
[4] = target: T4, human GLP-1R (GLP-1 receptor); remark: listed apart in the source
[5] = target: T1, human GIPR (glucose-dependent …); remark: listed apart in the source
[6] = target: T2, human GLP-2R (glucagon-like peptide-2 …); remark: listed apart in the source
macaque GIPR = macaque GIPR (macaque)
rat GIPR = target: T3, rat GIPR

Binder	cAMP assay: EC50 (nM) GIPR [1] [nM]	cAMP assay: Efficacy GIPR [1] [%]	cAMP assay: EC50 (nM) GLP-2R [6] [nM]	cAMP assay: Efficacy GLP-2R [6] [%]	cAMP assay: logEC50 GLP-2R [6]	further results
H[Aib]DGTFISDYK([γGlu-Decanoyl])T[Aib]LDNLAARDFINWLIQTKITGNDWKHNITQ-OH [Compound no. 54, listing 1 of 2 here]	1.17	86	–	–	–	cAMP assay: EC50 (nM) GLP-1R [2]: 39.8 nM; cAMP assay: Efficacy GLP-1R [2]: 8%; cAMP assay: logEC50 GLP-1R [2]: 7.4
HADGTFISDYSTILDK([AEEA-AEEA-γGlu-C18 diacid])LAARDFINWLIQTKGKK [Compound no. 64]	–	–	–	–	–	cAMP assay: Efficacy GLP-2R [3]: 75%; cAMP assay: Efficacy GLP-1R [4]: 85%
HGEGSFGSDMSIALDKLAARDFVNWLLQTKITD (also: C14 fatty acid at C-terminus, attachment not given here) [Compound no. 66]	–	–	–	–	–	cAMP assay: Efficacy GIPR [5]: 97%
Palmitoyl-HADGTFISDYSTILDNLAARDFINWLIQTKITKAEWKHAITQ [Compound no. 49]	2.82	105	35.5	92	7.5	–
Palmitoyl-HADGTFISDYSTILDNLAARDFIEWLIQTKITKNDWKHNITQ [Compound no. 50]	0.891	101	10	70	8	–
Palmitoyl-HADGTFISDYST[Aib]LDNLAARDFINWLIQTKITKNDWKHNITQ [Compound no. 53]	0.316	90	4	79	8.2	–
HXDGTFISDYSTILDNLAARDFINWLIQTKITK (Aib at 2; K(C10) at 33 (C-terminal residue); C-terminus -OH) [Compound no. 63]	–	–	–	–	–	cAMP assay: Efficacy GIPR [5]: 99%; cAMP assay: Efficacy GLP-2R [3]: 105%; cAMP assay: Efficacy GLP-1R [4]: 84%
HXDGTFISDYKTILDNLAARDFINWLIQTKITK (Aib at position 2; K(γGlu-C16) at position 11; C-terminal -OH) [Compound no. 11]	–	–	–	–	–	Efficacy (%) (macaque GIPR): 92.5%; pEC50 (macaque GIPR): 9
HXDGTFISDYSTXLDNLAARDFINWLIQTKITK (Aib at 2 and 13; K(C10) at 33 (C-terminal residue); C-terminal amide (-NH2)) [Compound no. 65]	–	–	–	–	–	cAMP assay: Efficacy GIPR [5]: 107%; cAMP assay: Efficacy GLP-2R [3]: 77%; cAMP assay: Efficacy GLP-1R [4]: 76%
HADGTFISDYSTILDNLAARDFINWLIQTKGKK([AEEA-AEEA-γGlu-C18 diacid]) (also: K33: γGlu-C18-diacid linker 2xAEEA-γGlu) [Compound no. 60]	–	–	–	–	–	cAMP assay: Efficacy GIPR [5]: 93%; cAMP assay: Efficacy GLP-2R [3]: 90%; cAMP assay: Efficacy GLP-1R [4]: 105%
Palmitoyl-HADGTFISDYSTILDELAARDFINWLIQTKITKNDWKHNITQ [Compound no. 48]	2.82	112	25.1	69	7.6	–
H[Aib]DGTFISDYK([γGlu-Decanoyl])T[Aib]LDNLAARDFINWLIQTKITGNDWKHNITQ-OH [Compound no. 54, listing 2 of 2 here]	–	–	–	–	–	Efficacy (%) (macaque GIPR): 71.8%; pEC50 (macaque GIPR): 7.7
Palmitoyl-HADGTFISDYSTILDNLAARDFINWLIATKITKNDWKHNITQ [Compound no. 52]	0.251	96	7.9	68	8.1	–
HADGTFISDYSTILDKLAARDFINWLIQTK(C16 fatty acid)ITK [Compound no. 57]	12.6	97	–	–	–	cAMP assay: EC50 (nM) GLP-1R [2]: 100 nM; cAMP assay: Efficacy GLP-1R [2]: 73%; cAMP assay: logEC50 GLP-1R [2]: 7
Palmitoyl-HADGTFISDYSTILDNLAARDFINWLIETKITKNDWKHNITQ [Compound no. 51]	0.398	104	12.6	66	7.9	–
B1	–	–	–	–	–	Efficacy (%) (rat GIPR): 71.7%; pEC50 (rat GIPR): 8
HADGTFISDYST[Aib]LDK([AEEA-AEEA-γGlu-C18 diacid])LAARDFINWLIQTKGKK [Compound no. 62]	–	–	–	–	–	cAMP assay: Efficacy GIPR [5]: 86%; cAMP assay: Efficacy GLP-2R [3]: 83%; cAMP assay: Efficacy GLP-1R [4]: 85%
HADGTFISDYSTILDKLAARDFINWLIQTKITK(C16 fatty acid) [Compound no. 58]	1.41	74	–	–	–	–
